{"source": "paper doi:10.1101/2024.06.19.598823", "about": "(bioRxiv, 2024)", "key": {"[1]": {"biological_target": "6P stabilized SARS-CoV-2 S-ectodomain (prefusion-stabilized ancestral Wuhan spike ectodomain trimer) (SARS-CoV-2, ancestral Wuhan, stabilised)", "experiment": "cryo-EM structure"}, "[2]": {"biological_target": "SARS-CoV-2 spike ectodomain, trimeric recombinant (SARS-CoV-2, ancestral (Wuhan) assumed, UniProt P0DTC2)", "experiment": "cell-based or functional assay"}}}
{"binder": "nanobody 7F (VHH) VHH: EVQLVESGGGLVEAGGSLRLSCVASGLTFSDYTMAWFRQVPGQEREFVSHIGWGGSETYYADSVKGRFTISRDNAKNAMYLQMNELKPDDTAVYYCAADRGSSFYYVRESEYTFWGQGTQVTVSS", "values": [{"measurement": "stoichiometry N", "setting": "[1]", "value": "6 7F molecules per two spike trimers"}, {"measurement": "IC50 of neutralisation of VSV pseudotyped with SARS-CoV-2 spike on VeroE6 cells", "setting": "[2]", "value": 33.4, "unit": "nM"}]}
